Experiments:
[1] = molecular target: biotinylated hFcRn (human) (UniProt P55899); experiment: SPR Biacore, pH 6.0
Target sequence in this assay (P55899 24-297 limits assumed, form in doubt, chain 1 of 2): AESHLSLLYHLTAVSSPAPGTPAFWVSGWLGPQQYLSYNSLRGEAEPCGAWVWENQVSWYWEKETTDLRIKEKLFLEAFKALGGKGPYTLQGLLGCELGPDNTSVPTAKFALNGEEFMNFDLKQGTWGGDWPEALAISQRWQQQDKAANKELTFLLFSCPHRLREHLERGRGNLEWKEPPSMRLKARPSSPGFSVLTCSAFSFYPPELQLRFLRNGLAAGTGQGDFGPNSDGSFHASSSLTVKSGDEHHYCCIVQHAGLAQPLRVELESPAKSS
Target sequence in this assay (P61769 21-119 limits assumed, form in doubt, chain 2 of 2, further chain): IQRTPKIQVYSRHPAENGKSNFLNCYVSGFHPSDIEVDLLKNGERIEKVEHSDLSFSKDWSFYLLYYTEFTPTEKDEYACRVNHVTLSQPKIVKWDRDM

rFcRn (rat) [2] = molecular target: rFcRn (rat) (UniProt P13599); experiment: SPR Biacore, pH 6.0
Target sequence in this assay (P13599 23-298 limits assumed, form in doubt, chain 1 of 2): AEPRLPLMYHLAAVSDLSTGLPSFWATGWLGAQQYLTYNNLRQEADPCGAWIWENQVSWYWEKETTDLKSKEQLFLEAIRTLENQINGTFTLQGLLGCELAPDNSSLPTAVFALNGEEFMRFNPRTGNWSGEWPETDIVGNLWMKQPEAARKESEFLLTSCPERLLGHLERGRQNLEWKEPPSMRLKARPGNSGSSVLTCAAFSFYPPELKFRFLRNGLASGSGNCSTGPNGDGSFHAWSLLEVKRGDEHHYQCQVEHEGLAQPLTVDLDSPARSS
Target sequence in this assay (P07151 21-119 limits assumed, form in doubt, chain 2 of 2, further chain): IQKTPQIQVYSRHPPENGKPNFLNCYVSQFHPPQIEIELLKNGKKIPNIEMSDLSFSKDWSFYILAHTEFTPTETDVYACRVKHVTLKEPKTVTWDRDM

[3] = molecular target: biotinylated hFcRn (human) (UniProt P55899); experiment: Biacore SPR, pH 6.0, bivalent fit
Target sequence in this assay (P55899 24-297, form in doubt, chain 1 of 2): as the sequence (P55899 24-297 limits assumed, form in doubt, chain 1 of 2) above
Target sequence in this assay (P61769 21-119, form in doubt, chain 2 of 2, further chain): as the sequence (P61769 21-119 limits assumed, form in doubt, chain 2 of 2, further chain) above

rFcRn (rat) [4] = molecular target: rFcRn (rat) (UniProt P13599); experiment: Biacore SPR, pH 6.0, bivalent fit
Target sequence in this assay (P13599 23-298, form in doubt, chain 1 of 2): as the sequence (P13599 23-298 limits assumed, form in doubt, chain 1 of 2) above
Target sequence in this assay (P07151 21-119, form in doubt, chain 2 of 2, further chain): as the sequence (P07151 21-119 limits assumed, form in doubt, chain 2 of 2, further chain) above

rFcRn (rat) [5] = molecular target: rFcRn (rat) (UniProt P13599); experiment: BLI Octet, pH 6.0, purified antibody
Target sequence in this assay (P13599 23-298 limits assumed, form in doubt, chain 1 of 2): as the sequence (P13599 23-298 limits assumed, form in doubt, chain 1 of 2) above
Target sequence in this assay (P07151 21-119 limits assumed, form in doubt, chain 2 of 2, further chain): as the sequence (P07151 21-119 limits assumed, form in doubt, chain 2 of 2, further chain) above

[6] = molecular target: biotinylated hFcRn (human) (UniProt P55899); experiment: SPR Biacore, pH 7.4, 1000 nM antibody
Target sequence in this assay (P55899 24-297 limits assumed, form in doubt, chain 1 of 2): as the sequence (P55899 24-297 limits assumed, form in doubt, chain 1 of 2) above
Target sequence in this assay (P61769 21-119 limits assumed, form in doubt, chain 2 of 2, further chain): as the sequence (P61769 21-119 limits assumed, form in doubt, chain 2 of 2, further chain) above

rFcRn (rat) [7] = molecular target: rFcRn (rat) (UniProt P13599); experiment: SPR Biacore, pH 7.4, 1000 nM antibody
Target sequence in this assay (P13599 23-298 limits assumed, form in doubt, chain 1 of 2): as the sequence (P13599 23-298 limits assumed, form in doubt, chain 1 of 2) above
Target sequence in this assay (P07151 21-119 limits assumed, form in doubt, chain 2 of 2, further chain): as the sequence (P07151 21-119 limits assumed, form in doubt, chain 2 of 2, further chain) above

[8] = molecular target: biotinylated human FcRn (hFcRn; p51 subunit residues 24-297 with C-terminal Avi-tag, β2-m residues 21-119) (human) (UniProt P55899); experiment: Biacore SPR, pH 6.0, apparent affinity
[9] = molecular target: biotinylated human FcRn (hFcRn; p51 subunit residues 24-297 with C-terminal Avi-tag, β2-m residues 21-119) (human) (UniProt P55899); experiment: Biacore SPR, human FcRn, pH 7.4, steady state
[10] = molecular target: Human CD16a (FcγRIIIa residues 17-208, C-terminal HPC4 tag, valine at position 158) (human) (UniProt P08637); experiment: Biacore SPR, HPC4-captured FcγRIIIa-V158, pH 7.4
[11] = molecular target: biotinylated human FcRn (hFcRn; p51 subunit residues 24-297 with C-terminal Avi-tag, β2-m residues 21-119) (human) (UniProt P55899); experiment: Biacore SPR, pH 7.4, steady state, 1000 nM antibody
[12] = molecular target: biotinylated human FcRn (hFcRn; p51 subunit residues 24-297 with C-terminal Avi-tag, β2-m residues 21-119) (human) (UniProt P55899); experiment: Biacore SPR, Biotin CAPture, pH 7.4, 1000 nM antibody, steady state
[13] = molecular target: biotinylated human FcRn (hFcRn; p51 subunit residues 24-297 with C-terminal Avi-tag, β2-m residues 21-119) (human) (UniProt P55899); experiment: Biacore SPR; second ratio column (inverse of c7)
[14] = molecular target: biotinylated human FcRn (hFcRn; p51 subunit residues 24-297 with C-terminal Avi-tag, β2-m residues 21-119) (human) (UniProt P55899); experiment: Biacore SPR, Biotin CAPture of biotinylated human FcRn, pH 6.0
[15] = molecular target: biotinylated human FcRn (hFcRn; p51 subunit residues 24-297 with C-terminal Avi-tag, β2-m residues 21-119) (human) (UniProt P55899); experiment: Biacore SPR; pH 6.0 affinity (M^-1) over pH 7.4 steady state RU
[16] = molecular target: biotinylated human FcRn (hFcRn; p51 subunit residues 24-297 with C-terminal Avi-tag, β2-m residues 21-119) (human) (UniProt P55899); experiment: Biacore SPR, human FcRn, pH 6.0 (column 'Affinity, pH 6.0 (nM)')
[17] = molecular target: biotinylated cynomolgus FcRn (cynomolgus) (UniProt Q8SPV9); experiment: Biacore SPR, pH 6.0
[18] = molecular target: biotinylated hFcRn (human) (UniProt P55899); experiment: Biacore SPR, pH 6.0
Target sequence in this assay (P55899 24-297, form in doubt, chain 1 of 2): as the sequence (P55899 24-297 limits assumed, form in doubt, chain 1 of 2) above
Target sequence in this assay (P61769 21-119, form in doubt, chain 2 of 2, further chain): as the sequence (P61769 21-119 limits assumed, form in doubt, chain 2 of 2, further chain) above

mouse FcRn (mouse) [19] = molecular target: mouse FcRn (mouse) (UniProt Q61559); experiment: Biacore SPR, pH 6.0
[20] = molecular target: biotinylated cynomolgus FcRn (cynomolgus) (UniProt Q8SPV9); experiment: Biacore SPR, pH 7.4, steady state
[21] = molecular target: biotinylated hFcRn (human) (UniProt P55899); experiment: Biacore SPR, pH 7.4, steady state
Target sequence in this assay (P55899 24-297, form in doubt, chain 1 of 2): as the sequence (P55899 24-297 limits assumed, form in doubt, chain 1 of 2) above
Target sequence in this assay (P61769 21-119, form in doubt, chain 2 of 2, further chain): as the sequence (P61769 21-119 limits assumed, form in doubt, chain 2 of 2, further chain) above

mouse FcRn (mouse) [22] = molecular target: mouse FcRn (mouse) (UniProt Q61559); experiment: Biacore SPR, pH 7.4, steady state
[23] = molecular target: Human CD16a (FcγRIIIa) V158 with C-terminal HPC4 tag (human) (UniProt P08637); experiment: Biacore SPR, captured FcγRIIIa-V158, relative to WT of the same backbone
Chain of Human CD16a (FcγRIIIa) V158 with C-terminal HPC4 tag (human) (P08637 17-208 F176V): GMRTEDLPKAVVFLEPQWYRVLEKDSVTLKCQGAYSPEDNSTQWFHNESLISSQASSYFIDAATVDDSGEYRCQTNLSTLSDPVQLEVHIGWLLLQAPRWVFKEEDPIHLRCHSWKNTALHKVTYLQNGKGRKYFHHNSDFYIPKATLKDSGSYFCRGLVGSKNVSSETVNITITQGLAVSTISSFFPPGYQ

Chain of Human CD16a (FcγRIIIa residues 17-208, C-terminal HPC4 tag, valine at position 158) (human) (P08637 17-208 F176V): as above
Chain of biotinylated human FcRn (hFcRn; p51 subunit residues 24-297 with C-terminal Avi-tag, β2-m residues 21-119) (human) (P55899 24-297, form in doubt, chain 1 of 2): as the sequence (P55899 24-297 limits assumed, form in doubt, chain 1 of 2) above
Chain of biotinylated human FcRn (hFcRn; p51 subunit residues 24-297 with C-terminal Avi-tag, β2-m residues 21-119) (human) (P61769 21-119, form in doubt, chain 2 of 2, further chain): as the sequence (P61769 21-119 limits assumed, form in doubt, chain 2 of 2, further chain) above
Chain of mouse FcRn (mouse) (Q61559 22-297, chain 1 of 2): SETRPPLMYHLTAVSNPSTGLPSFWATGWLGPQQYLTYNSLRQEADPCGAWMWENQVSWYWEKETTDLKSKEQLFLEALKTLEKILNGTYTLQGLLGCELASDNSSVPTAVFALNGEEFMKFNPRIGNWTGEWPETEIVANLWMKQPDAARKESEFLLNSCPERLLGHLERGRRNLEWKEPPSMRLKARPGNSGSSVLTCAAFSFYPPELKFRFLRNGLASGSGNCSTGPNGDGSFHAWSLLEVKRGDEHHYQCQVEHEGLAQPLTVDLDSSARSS
Chain of mouse FcRn (mouse) (P01887 21-119, chain 2 of 2, further chain): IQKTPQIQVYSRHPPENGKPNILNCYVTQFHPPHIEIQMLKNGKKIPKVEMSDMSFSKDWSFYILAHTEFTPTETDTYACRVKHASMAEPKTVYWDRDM

Substance | Ka [8] | Steady State RU (pH 7.4) [9] | Steady State Binding, pH 7.4 (RU) [11] | pH 7.4 RU [12] | Kd [14] | Kd [17] | Kd [18] | Kd (mouse FcRn (mouse) [19]) | Steady State RU (pH 7.4) [20] | Steady State RU (pH 7.4) [21] | Steady State RU (pH 7.4) (mouse FcRn (mouse) [22]) | FcγRIIIa V158 Affinity Fold Change (fold relative to WT) [23] | further results
mAb1 T307E (antibody) | – | – | – | – | – | – | – | – | – | – | – | – | Kd [1]: 8.13 µM; koff [1]: 0.298 s⁻¹; kon [1]: 43700 M⁻¹ s⁻¹; Kd (rFcRn (rat) [2]): 0.141 µM; koff (rFcRn (rat) [2]): 0.00603 s⁻¹; kon (rFcRn (rat) [2]): 55500 M⁻¹ s⁻¹; Kd [3]: 8.13 µM; koff [3]: 0.3 s⁻¹; kon [3]: 44000 M⁻¹ s⁻¹; Kd (rFcRn (rat) [4]): 0.141 µM; koff (rFcRn (rat) [4]): 0.006 s⁻¹; kon (rFcRn (rat) [4]): 56000 M⁻¹ s⁻¹; koff (rFcRn (rat) [5]): 0.00329 s⁻¹; Steady State RU [6]: 5.7 RU; Steady State RU (rFcRn (rat) [7]): 21.5 RU
mAb1 YDQF variant (M252Y/T256D/T307Q/N434F) (antibody) | 1.11e+08 M⁻¹ | 91.7 RU | 68.6 RU | 91.7 RU | – | – | – | – | – | – | – | – | FcγRIIIa Binding (RU) [10]: 93.2 RU
mAb1 YDQY variant (M252Y/T256D/T307Q/N434Y) (antibody) | 2.35e+08 M⁻¹ | 103 RU | 80.2 RU | 103 RU | 0.0027 µM | – | – | – | – | – | – | – | Ratio (pH 7.4/pH 6.0) [13]: 3.41e-07; FcγRIIIa Binding (RU) [10]: 119 RU; Ratio (pH 6.0/pH 7.4) [15]: 2.93e+06; Kd [16]: 0.0027 µM
mAb1 YDWY variant (M252Y/T256D/T307W/N434Y) (antibody) | 2.66e+08 M⁻¹ | 91.2 RU | 88.5 RU | 91.2 RU | 0.0052 µM | – | – | – | – | – | – | – | Ratio (pH 6.0/pH 7.4) [13]: 3.33e-07; FcγRIIIa Binding (RU) [10]: 104 RU; Ratio (pH 6.0/pH 7.4) [15]: 3.01e+06; Kd [16]: 0.0052 µM
mAb1 YEQY variant (M252Y/T256E/T307Q/N434Y) (antibody) | – | 93.6 RU | – | 93.6 RU | 0.0048 µM | – | – | – | – | – | – | – | Kd [16]: 0.0048 µM
mAb1 YEWY variant (M252Y/T256E/T307W/N434Y) (antibody) | – | 98.2 RU | – | 98.2 RU | – | – | – | – | – | – | – | – | –
mAb1 YTTY variant (M252Y/N434Y) (antibody) | 1.2e+08 M⁻¹ | – | 54.1 RU | 54.4 RU | 0.0229 µM | – | – | – | – | – | – | – | Ratio (pH 7.4 RU / pH 6.0 affinity) [13]: 4.51e-07; Ratio (pH 6.0/pH 7.4) [15]: 2.22e+06
mAb2 DQ (T256D/T307Q) (antibody) | – | – | – | – | – | 0.11 µM | 0.097 µM | 0.024 µM | 11 RU | 14 RU | 248 RU | 1.05 | –
mAb2 DW (T256D/T307W) (antibody) | – | – | – | – | – | 0.099 µM | 0.069 µM | 0.013 µM | 15 RU | 18 RU | 257 RU | 1.15 | –
mAb2 LS (M428L/N434S) (antibody) | – | – | – | – | – | 0.21 µM | 0.113 µM | 0.02 µM | 38 RU | 44 RU | 285 RU | 1.23 | –
mAb2 YD (M252Y/T256D) (antibody) | – | – | – | – | – | 0.12 µM | 0.099 µM | 0.01 µM | 22 RU | 27 RU | 394 RU | 0.58 | –

— patent US20190263934A1
